Here are results for 41 sequences from the nanobody polyreactivity screen of Harvey et al. (2022).

This data set in a line: yeast display, Sf9 membrane polyspecificity reagent, FACS + sequencing; frameworks hold sequencing errors. Put shortly: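 Synthetic nanobody libraries on Saccharomyces cerevisiae BJ5465 were galactose-induced for 36–48 hours, stained 1 hour at 4 °C with 10% biotinylated, detergent-solubilized Sf9 membrane reagent and enriched on streptavidin microbeads. FACS then separated cells into low and high (top ~1%) gates by anti-HA (expression) and streptavidin (reagent binding) fluorescence. Genes were colony-PCR amplified, MiSeq 2 × 250 sequenced and CDR-length filtered. A clone's polyreactivity label is that of its gate of origin.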
Turning to “QVQLQESGGGLVQAGGSLRLSCAASGSIFVSVTMGWYRQAPGKERELVASIGRGSTTNHADSVKGRFTISRDNAKNIVYLLMNSLKPEDTEVYYCAALESYGKYHGYWGQGTQVTVSS”, the “polyreactivity (PSR sort gate)” value is reported as “low polyreactivity”.
As to “QVQLQESGGGLVQAGGSLRLSCAASGSISADGAMGWYRQAPGKEREFAASVNWGTNTNYADSVKGRFTISRDNAKNTLYLQMNRLKPEDTAVYYCAVLPDWETRHDYWGHGTQVTVSS”, the “polyreactivity (PSR sort gate)” value is recorded as “low polyreactivity”.
With “QVQLQESGGGLVQAGGSLRLSCAASGSISRYYDMGLYRQAPGKEREFVAGISGGAITYYADSVKGRFTISRDNAKNTVYLQMNSLKPVDTAVYYCAADTGVYQYHSYWGQGTQVTVSS” the entry was “low polyreactivity”; with “QVQLQESGGGLVQAGGSLRLSCAASGSISRYYDMGWYRQAPGKELEFVAGISGGAITYYADSVKGRFTISRDNAKNTVYLQMNSLKPEDTAVYYCAADTGVYQYHSYWGQGTQVTVSS”, “low polyreactivity”.
With “QVQLQESGGGLVQAGGSLRLSCAASGSISSRDAMGWYRQAPGKEREFVATIASGTTTYYADSVKGSFTISRDNAENTVYLQTNSLKPEDTAVYYCAAPTIQIYPFYYWGQGTQVTVSS” the entry was “high polyreactivity”; with “QVQLQESGGGLVQAGGSLRLSCAASGSNFDTPTMGWYRQAPGKERELVASIAYDDNTYYADSVKGRFTISRYNAKNTVYLQMNSLKPGDTAVYYCAVTDRIYYYFVYWGQGTRVTVSS”, “high polyreactivity”; with “QVQLQESGGGLVQAGGSLRLSCAASGSNFDTPTMGWYRQAPGKERELVASSAYDDNTYYADSVKGRFTISRYNAKNTVYLQRNSLKPGDTAVYYCAVTDRIYYYFVYWGQGTRVTVSS”, “high polyreactivity”.
As for “QVQLQESGGGLVQAGGSLRLSCAASGTIFTARFMGWYRQAPGKERELVATITDGGNTNHADSVKGRFTISRDNAKNTVYLQMNSLKPEDAAVYYFAAGEVDNDTLLYWGQGSQVTVSS”, the entry is “low polyreactivity”; as for “QVQLQESGGGLVQAGGSLRLSCAASGTIFWLWAMGRYCQAPGQDRELVASISSGGTTYHADSVKGRFTISRDKAKNPVYRQMNSVKPEDTAVYYRAAFYVATAKLGYWGQGSQVTVSS”, “low polyreactivity”.
As for “QVQLQESGGGLVQAGGSLRLSCAASGTIFYKDDMGWYRQAPGKEREFVAGIDRGGTTNCAGSVKGRFTISRDNAKNTVYLQMISLKPEDTAVYYCAAYYPDIYPFIYRGQGTQVTVSS”, the “polyreactivity (PSR sort gate)” value is recorded as “high polyreactivity”.
As for “QVQLQESGGGLVQAGGSLRLSCAASGTILYSLGMGWYRQAPGKRREFVASITWGTTTNYAESVKGRFTISRDNAKNTVYPQMNSLKPEDTAVYDCAAPPFGDSSYHYWGQGTQVTVSS”, the entry is “low polyreactivity”; as for “QVQLQESGGGLVQAGGSLRLSCAASGTISDRAGMGWYRQAPAKNAIVATIDRGTNTNYADSVKGRFTISRDNAKNTVYLQMNSLKPEDTAVYNCAAVGRYYIYLDYWGQGTQVTVSS”, “low polyreactivity”; as for “QVQLQESGGGLVQAGGSLRLSCAASGTISPLPAMGWYRQAPGKEREFVAGIDTGAITNYADSVKGRFTISRDNAKNTVYLQMNSLKPEDTAVYYCAVFQAAYDYYERYYTYWGQGTQVTVSS”, “low polyreactivity”.
Regarding “QVQLQESGGGLVQAGGSLRLSCAASGTISPLPAMGWYRQAPGKEREFVPGIDTGAITNYADSVKGRFTISRDNAKNTVYLQMNSLKPEDTAVYYCAVFPAAYDYYERYYTYWGQGTQVTVSS”, the “polyreactivity (PSR sort gate)” value is “low polyreactivity”.
With “QVQLQESGGGLVQAGGSLRLSCAASGTISTDSYMGWYRQAPGKERKFVASIGYGGITYYADSVKGRSTISRDSAKNTVYLQMNSLKPEDTAVYYCAVNSYYPDHYWYWGRGTQVTVSS” the entry was “high polyreactivity”; with “QVQLQESGGGLVQAGGSLRLSCAASGTISTDSYMGWYRQAPGKESKFVATIGYGGITYYADSVKGRSTISRDSAKNTVYLQMNILKPEDTAVYYCAVNSYYPDHYWYWGRGTQVTVSS”, “high polyreactivity”.
As for “QVQLQESGGGLVQAGGSLRLSCAASGTISVHASMGWYRQAPGKERELVAGITDGANTYYADSVKGRFTISRDNSKNTVYLQMNSLIPEDTAVYYCAAYYGTEVHFTYWGQGTQVTVSS”, the entry is “low polyreactivity”; as for “QVQLQESGGGLVQAGGSLRLSCAASGTITVLYKMGWFRQAPGKEREFVASINYGTRTYYADSVKGRFTVSRDSAKNTVYLQMNSLKPEDTAVYYCAAAYRWQDVYRYWGQGTQVTVSS”, “low polyreactivity”; as for “QVQLQESGGGLVQAGGSLRLSCAASGTITVLYKMGWFRQAPGKEREFVASINYGTSTYYADSVKGRFTVSRDSAKNTVYLQMNCLKPEDTAVYYFAAAYRWQDVYRYWGQGTQVTVSS”, “low polyreactivity”.
As for “QVQLQESGGGLVQAGGSLRLSCAASGYIFPRIYMGWYRQAPGKEREFDAGISYDAITNYADSVKGRFTISLDNAKNTVYLQMNSLKPEDTAVYYCAVSYYGTPLFTYWGQGTQVTVSS”, the entry is “high polyreactivity”; as for “QVQLQESGGGLVQAGGSLRLSCAASGYISHADEMGWYRQAPGKEHELVASISNGGSTNYADSVKGRFTISRDNAKNTLYLQMNSLKSEDTAVNYCAAWTGQVDIHYYWGHGTQVTVSS”, “low polyreactivity”.
For “QVQLQESGGGLVQAGGSLRLSCAASGYISIGRRMGWYRQAPGKERELVAGINGGGSTNYADSVKGRSTISRDNAKNTVYLQMNSLKPEDTAVYYCAAYVYDYDWYKYWGQGTQVTVSS”, the “polyreactivity (PSR sort gate)” value is listed as “high polyreactivity”.
For the sequence “QVQLQESGGGLVQAGGSLRLSCASSGSIFWVWRMGWYCQAPGKEREFVAGIGLGATTNYADSVKGRFTISRDNAKNTVYLQMNSLKPGDTAVYYCATVGYYKGNQVLPAKDGDSWGQGTQVTVSS”, the “polyreactivity (PSR sort gate)” value is “high polyreactivity”.
As for “QVQLQESGGGLVQAGGSLRLSCPSSGNISIKLQMGWYRQAPGKERELVATINLGAITYYADSVKGLITISRDNAKNTVYLQVNSLKPEDTAVYYCNAQSRTWRKLGYWGQGTQVTVSS”, the entry is “low polyreactivity”; as for “QVQLQESGGGLVQAGGSLRLSCSATGTIFTDRFMGWYRQAPGKERELVAGISPGTSTNYADSVKGRFTISRDNAKNTVYLQMNSLKPEDTAVYYCAADWSTGNTLPYWGQGTQVTVSS”, “high polyreactivity”.
As for “QVQLQESGGGLVQAGGSLRLSSAASGTITVLYKMGWFRQPPGKQREFVASINYGTSTYYADSVKGRFTVSRDSAKKTVSLQMNSLKPEDTAVYYCAAAYRWQDVYRYWGQGTQVTVSS”, the entry is “low polyreactivity”; as for “QVQLQESGGGLVQAGGSLRLTCAASGSIFLNSEMGWYRQAPGKERELVAAIATGTSTNYADSVKGRFTISRDNAKNTVYLQMNSLKPEDTAVYYCATYHYWGQGTQVTVSS”, “low polyreactivity”; as for “QVQLQESGGGLVQAGGSLRMSCAASGKIFDADIMGWYRQAPGKERELVASNTDGRRTNYADSVKGRYTISRDSEKNTVYLQMNSLKAEDTAEYYCAAIAYPVVPTSFDYDSDYFHWGQGTQVTVSS”, “high polyreactivity”.
As for “QVQLQESGGGLVQAGGSLRMSCAASGNIFDADIMGWYRQAPGKERELVASITDGRRTNYADSVKGRYTISRDSEKNTVYLQMNSLKPEDTAVYYCAAIAYPVVPTYFDYDSDYFHWGQGTQVTVSS”, the entry is “high polyreactivity”.
On to “QVQLQESGGGLVQAGGSLRMSCAASGSIFSEANIGWYRQAPGKERELVATIGQGSTTNYADSVKGRFTISRDNAKNNVDLQLTSRKPEETAVYYCAVDTVDPVGFVYWGQGTQVTVRS”, for which the “polyreactivity (PSR sort gate)” value is “low polyreactivity”.
With “QVQLQESGGGLVQAGGSLRQSCAASGNIFLGDTMGWYRPAPGKEREFVAGIARGGNPYYADSVKGRFTISRNNAKNTVYLQKNSLKPEDTAVHYCAVQRSHASDYNYWGQGTQVTVSS” the entry was “low polyreactivity”.
For “QVQLQESGGGLVQAGGSLRQSCAASGYIFPYYSMGSYRQAPGKERGLVACIAAGTTTNYADSVKGRFTISRDNAKKSVYLQMNSLKPEDAAVYYCAALNAFNTGHWYWGQGTQVTVSS”, the “polyreactivity (PSR sort gate)” value is “low polyreactivity”.
As for “QVQLQESGGGLVQAGGSLRQSYAASGYIFPSLAMGWYRQAPGKEREFVAAIGRGSTNNYADSVKGRFTISRDNAKKTAYQQMNSLKPEDTAVYYCAAAASPLTRHLYWGQGTQVTVSS”, the entry is “low polyreactivity”; as for “QVQLQESGGGLVQAGGSLSCAASGNIFYIKYMGWYRQEPGKEREFVASIAHGTSTYYADSVKGLFTISRDNAKNTVYLQMNSLKPVDTAVYYCAAVTQSYYSYYYWGQGTQVTVSS”, “low polyreactivity”.
With “QVQLQESGGGLVQAGGSLSLSCAASGSNFVSVTMGWYRQAHGKERELVASIGRGSTTNHADSVKGRFTISRDNAKNIVYLLMNSLKPEDTAVYYCAALESYGKYHGYWGQGTQVTVSS” the entry was “low polyreactivity”; with “QVQLQESGGGLVQAGGSMRLSCAATGSISELRPMGWYSQAPGKERELVAGISTGGSTNYADSVKGRFTISRDNAKNTVFLQMNSLKPEDTAVYYCAAGSYGEGTYDYWGQGTQVTVRS”, “high polyreactivity”; with “QVQLQESGGGLVQAGGSPRLSCAASDNIFPDSVMCWYRQAPGKERELVATIGFGATTNSADSVKGRFTISRDNAKNTVYLQMNSLKPEDTAVYSCAADPLNYEYFCYWGQGTQVTVSS”, “low polyreactivity”.
In the case of “QVQLQESGGGLVQAGGSPRLSCAASDNIFPDSVRCWYRQAPGKERELVATIGFGATTNYADSVKGRFTISRDNAKNTVYLQMNSLKPEDTAVYYCAADPLNYEYFCYWGQGTQVTVSS”, the “polyreactivity (PSR sort gate)” value is given as “low polyreactivity”.
As for “QVQLQESGGGLVQAGGSQRLSCAASGYIFYFQYMGWYRQAPGKELEFVAAISDGANTNYADSVKGRITISRDNAKNTEYLQMNSLKPEDTAVYYCAVYADENDYYIYWGQGTQVTVSS”, the entry is “low polyreactivity”; as for “QVQLQESGGGLVQAGGSQRLSCAASGYIIYFQYMGWYRQAPGKEREFVAAISDGANTNYADSVKGRFTISRDNAKNTEYLQMNSLKPEDTAVYYCAVYADENYYYIYWGQGTQVTVSS”, “low polyreactivity”.
On to “QVQLQESGGGLVQASGSPRLSCAASGNIFDADIMGWYRQAPGKQCELVASITDGGSTNYADSEKGRFTISSDNAKNTVYLQKNSLKPEDTAVYYCAAISYRDIPTYFDYDSDYFYWGQGTHVTVSS”, for which the “polyreactivity (PSR sort gate)” value is “high polyreactivity”.
